# Measured values from IntAct's records for PubMed 15169888.
# B1: Nuclear factor NF-kappa-B p105 subunit (Homo sapiens), P19838-1 (parent)
# chain: MAEDDPYLGRPEQMFHLDPSLTHTIFNPEVFQPQMALPTDGPYLQILEQPKQRGFRFRYVCEGPSHGGLPGASSEKNKKSYPQVKICNYVGPAKVIVQLVTNGKNIHLHAHSLVGKHCEDGICTVTAGPKDMVVGFANLGILHVTKKKVFETLEARMTEACIRGYNPGLLVHPDLAYLQAEGGGDRQLGDREKELIRQAALQQTKEMDLSVVRLMFTAFLPDSTGSFTRRLEPVVSDAIYDSKAPNASNLKIVRMDRTAGCVTGGEEIYLLCDKVQKDDIQIRFYEEEENGGVWEGFGDFSPTDVHRQFAIVFKTPKYKDINITKPASVFVQLRRKSDLETSEPKPFLYYPEIKDKEEVQRKRQKLMPNFSDSFGGGSGAGAGGGGMFGSGGGGGGTGSTGPGYSFPHYGFPTYGGITFHPGTTKSNAGMKHGTMDTESKKDPEGCDKSDDKNTVNLFGKVIETTEQDQEPSEATVGNGEVTLTYATGTKEESAGVQDNLFLEKAMQLAKRHANALFDYAVTGDVKMLLAVQRHLTAVQDENGDSVLHLAIIHLHSQLVRDLLEVTSGLISDDIINMRNDLYQTPLHLAVITKQEDVVEDLLRAGADLSLLDRLGNSVLHLAAKEGHDKVLSILLKHKKAALLLDHPNGDGLNAIHLAMMSNSLPCLLLLVAAGADVNAQEQKSGRTALHLAVEHDNISLAGCLLLEGDAHVDSTTYDGTTPLHIAAGRGSTRLAALLKAAGADPLVENFEPLYDLDDSWENAGEDEGVVPGTTPLDMATSWQVFDILNGKPYEPEFTSDDLLAQGDMKQLAEDVKLQLYKLLEIPDPDKNWATLAQKLGLGILNNAFRLSPAPSKTLMDNYEVSGGTVRELVEALRQMGYTEAIEVIQAASSPVKTTSQAHSLPLSPASTRQQIDELRDSDSVCDSGVETSFRKLSFTESLTSGASLLTLNKMPHDYGQEGPLEGKI
# partner: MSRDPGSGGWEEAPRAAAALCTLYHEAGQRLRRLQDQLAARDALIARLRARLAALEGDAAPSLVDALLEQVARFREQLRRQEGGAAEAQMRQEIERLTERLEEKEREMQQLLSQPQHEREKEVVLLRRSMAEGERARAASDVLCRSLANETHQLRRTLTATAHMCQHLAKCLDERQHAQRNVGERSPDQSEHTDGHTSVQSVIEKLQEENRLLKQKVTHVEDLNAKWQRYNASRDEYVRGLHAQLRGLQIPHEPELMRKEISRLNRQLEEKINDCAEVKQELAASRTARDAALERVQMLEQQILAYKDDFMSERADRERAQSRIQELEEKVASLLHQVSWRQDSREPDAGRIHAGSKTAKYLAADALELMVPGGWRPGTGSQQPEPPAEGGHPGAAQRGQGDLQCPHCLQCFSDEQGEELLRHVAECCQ
# Variants of: B1
# Conditions: with tnip2_human TNIP2, Q8NFZ5
row,effect of a mutation on the interaction,Variant
1,disrupting interaction,L841A
